We go through one molecule from patent publication US20100196361A1 (published 2010).

The target of the test is T1, Tie1-Fc immobilized on a CM5 chip (species not stated).
T1 construct: also called immobilized Tie1-Fc
The experiment in a line: SPR, Tie1-Fc immobilized to the CM5 sensor chip, bivalent anti-Tie1 as analyte. How it is done:
Affinity analysis of the Fab and IgGs was performed using surface plasmon resonance using a BIAcore 3000 instrument. For this analysis both dimeric (Tie1-Fc fusion protein) and monomeric (Tie1-HIS) versions of the extracellular domain of the Tie1 were used. The sensor chips used in these experiments were CM5 (dextran-coated) which allow immobilization of proteins to the chip via standard amine coupling chemistries. The concentration of flowed antibody was determined using a surface plasmon resonance based method. Using a high-density protein A sensor chip, under mass transport limited conditions, the response signal is dependent only on the concentration of the antibody in the sample under test. This approach allows a precise determination of the antibody concentration, a parameter important for accurate determination of the KD.

B1: DX-2220 (full length IgG1, germlined human anti-Tie1 antibody E3b) (antibody, V domains shown)
VH: EVQLLESGGGLVQPGGSLRLSCAASGFTFSMYGMVWVRQAPGKGLEWVSVISPSGGNTGYADSVKGRFTISRDNSKNTLYLQMNSLRAEDTAVYYCARAPRGYSYGYYYWGQGTLVTVSS
VL: DIQMTQSPSSLSASVGDRVTITCRASQGIGHYLAWYQQKPGKVPKLLIYTASTLQSGVPSRFSGSGSGTDFTLTISSLQPEDVATYYCQQFNSYPHTFGQGTRLEIKR
notes: Heavy and light chain frameworks germlined; also called E3b-IgG1; germlined E3b IgG1
For B1, the Kd worked out at 0.2 nM and the “fold increase in affinity (against the anti-Tie1 Fab)” value is more than 10 fold.
